This note sets out measurements from article PMC3439905.

The target of the data set is human alpha-thrombin (CD samples) (Homo sapiens, UniProt P00734;P00734 328-363;364-622). As to the kind of experiment: CD thermal denaturation at 295 nm.

B1: TBA (thrombin-binding aptamer) (structured_DNA)
DNA: GGTTGGTGTGGTTGG
With B1, the binding result was “binds”.
